Measurements taken from the Human Domainome abundance scans (Beltran et al. 2025).

B1: Retinoic acid receptor beta, residues 85 to 161; numbered along this chain, P10826 (parent)
chain: YKPCFVCQDKSSGYHYGVSACEGCKGFFRRSIQKNMIYTCHRDKNCVINKVTRNRCQYCRLQKCFEVGMSKESVRND

Variants of: B1
Assay: abundance fitness (aPCA) (normalised: wild type 0, dead -1); higher = more abundant; growth selection in yeast, the domain comes from the species named
Conditions: Homo sapiens

Abundance fitness of substitutions, site by site:
C40: V -0.867; G -0.817; N -0.999; Y -0.642; A -0.901; S -0.885; W -0.594; L -0.555; I -0.667; M -0.568; F -0.775; D -0.825; R -0.883; P -0.703; T -0.539; K -0.848; E -0.831
C56: F -0.946; D -0.623; E -0.703; I -1.05; A -1.16; H -0.581; L -0.907; G -0.773; K -0.978
Y38: Q -0.739; D -0.997; F -0.187; E -0.472; P -0.26; R -0.499; S -0.417; C -0.899; H -0.414; N -0.28; M -0.466; T -0.173; W -0.282; A -0.59; G -0.523
R55: T 0.239; L 0.183; C 0.102; S 0.265; G 0.262; F -0.343; D 0.244; E 0.277; H 0.205; V 0.227; M 0.25; W 0.149; Y 0.077; I 0.155; P 0.218; K 0.198; A 0.18; N 0.26
I37: C -0.204; D 0.048; V 0.032; L -0.053; G -0.152; W -0.119; Q 0.1; R -0.009; P -0.118; S -0.085; N 0.043; T -0.098; E 0.046; H -0.161; Y -0.345; K 0.13
V51: A -0.115; L 0.238; S 0.011; F 0.13; T 0.019; N -0.014; Y -0.003; K -0.013; P -0.218; I 0.073; E 0.171; Q 0.076; W 0.282; M 0.166; D 0.255; R -0.146; C -0.249
K44: Y -0.321; P -0.599; T -0.043; R 0; E -0.015; C -0.113; I -0.009; D -0.059; L -0.059; F -0.283; V -0.356; Q 0.166; A -0.004; M 0.032; G 0.035; S 0.056; H -0.322; W -0.208
T39: F 0.105; N 0.003; L 0.059; K 0.056; Y -0.009; W -0.097; S -0.01; Q 0.076; E -0.025; A -0.017; P -0.327; D 0.078; R -0.01; C -0.047; H 0.029; M 0.061; G -0.156
R53: F 0.057; M 0.195; C 0.084; T -0.002; S 0.126; P 0.103; K 0.071; L 0.148; H 0.016; G 0.003; E 0.102; N 0.123; Y 0.116; V 0.211; A 0.183; I 0.127; D -0.018; Q 0.19; W -0.026
N54: H 0.067; D 0.345; C -0.267; G -0.007; Y 0.112; R 0.036; W -0.088; T 0.185; V 0.11; S 0.136; I 0.233; E 0.217; F 0.089; P -0.003; Q 0.183; K 0.183; A 0.074; M 0.216
D43: V -0.103; M -0.076; P -0.471
